Laboratory results reported in US20040248211A1, “ICAM-related protein” (priority 1992, published 2004).

Columns and labels:
ICAM-R = assay: Epitope mapping by domain substitution/deletion (summary); format: binding, human
Protocol: Fusion 81 was screened by ELISA on COS cells transiently transfected with either a domain 1 deleted ICAM-R construct [Example 15.C.1] or with an ICAM-2 construct. The transfected cells were paraformaldehyde fixed on 96-well plates, and the remainder of the assay was performed as previously described, except no Tween 20 was used. The wells that were positive for domain 1 deleted ICAM-R but negative for ICAM-2, were tested on Cos cells transiently transfected with domain 1 deleted ICAM-R or domain 3 deleted ICAM-R by ELISA.
For the anti-ICAM-R monoclonal antibody binding assay, COS cells transfected with constructs encoding the ICAM-R chimeric proteins or control constructs were removed from the plates by EDTA treatment and aliquoted at 2.5×10^5 cells per well in a 96-well round bottom plate. Cells were washed 3 times with ice cold washing buffer (PBS containing 1% BSA and 0.05% sodium azide). […] The samples were analyzed on a Becton-Dickinson FACScan instrument. […]
Table 11 below is a summary of certain characteristics of ICAM-R specific monoclonal antibodies of the invention which have been specifically described in the foregoing examples. In Table 11, the abbreviation “NC” stands for “not conclusive” and the abbreviation “ND” stands for “not determined.” The antibodies marked with an asterisk in Table 11 enhanced activation at low concentrations.

PBMC = PBMC proliferation with or without rIL-2; format: cell-based, human; settings: immobilized antibody 10 μg/well; with or without rIL-2 10 units/ml; 3 days
Protocol: Ten μg of ICAM-R monoclonal antibodies ICR-1.1 or ICR-4.2 (or control IgG1 and IgG2) antibodies) in PBS were added per well of 96-well flat bottom tissue culture plates and the plates were incubated for 3-4 hours at 37° C. in a 5% CO2 incubator. After incubation, each well was rinsed 3 times with PBS and freshly obtained PBL were added to a final concentration of 2×10^5 cells/well in a volume of 200 μl. Ten units/ml human recombinant IL-2 (Genzyme, Boston, Mass.) was then added to selected wells. The plates were incubated for a total of 3 days at 37° C. in a 5% CO2 incubator. ^3H-thymidine incorporation by the PMBC was determined as described earlier in this example. […] Positive controls for lymphocyte proliferation included immobilized anti-CD3 and anti-LFA-1 (60.3) monclonal antibodies.

human PBL = assay: SEA-induced aggregation of PBL; format: cell-based; settings: versus plate-bound B-H9
PBL [1] = assay: Pre-incubation on plate-bound antibody then SEA proliferation; format: cell-based, human; settings: cells moved to clean wells; SEA 10 pg/ml, 3 days
Protocol: The minimum time required for plate-bound anti-ICAM-R to inhibit SEA-induced proliferation was also determined. PBL were pre-incubated on plate-bound ICR-4.2, ICR-1.1 or isotype-matched anti-HLA-I control antibodies B-H9 (IgG1) and I0T2 (IgG2) with or without SEA (10 ρg/ml) for 3, 5 and 7 hours. PBL were then transferred to clean wells and cultured in the presence of SEA (10 pg/ml) for 3 days.

PBL [2] = assay: Detergent resistance (cytoskeleton association) assay, PBL; format: cell-based, human
Protocol: Experiments were conducted using freshly prepared human PBL or the human T lymphoblastoid cell line CEM-CCRF (ATCC CCL119). Briefly, freshly drawn human blood from healthy volunteer donors was diluted 1:1 with PBS and layered onto Sigma HistoPaque density separation medium. The gradients were centrifuged for 30 minutes at 1500 rpm (600×g) and the mononuclear cell fraction at the interphase was collected and washed three times with PBS. The cell pellet was resuspended in complete RPMI-1640 medium (Gibco, supplemented with L-glutamine, penicillin/streptomycin, sodium pyruvate, 2-mercaptoethanol, and 10% FBS) and plated onto tissue culture-treated petri dishes for adherent cell depletion. Plates were incubated 1-2 hours at 37° C., 5% CO2 after which nonadherent PBL were harvested and washed twice with ice-cold PBS. Conjugation of monoclonal antibodies to fluorescein using fluorescein isothiocyanate (FITC) was performed according to published procedures [see, e.g., Goding, J. Immunol. Meth., 13: 215 (1976)] and, in brief, involves incubation of purified antibody with an excess of FITC (Sigma) in 0.1M bicarbonate buffer pH 8.1 for 90 minutes at 37° C. followed by exhaustive dialysis against PBS to remove unreacted FITC. […]

B1: ICR-1.1: anti-ICAM-R monoclonal antibody, IgG2a, domain 1, ATCC HB 11053 (antibody, V domains shown)
VH: QVQLQQSGAELAKPGASVKMSCKASGYTFTVYWMHWVKQRPGQGLEWIGYINPNTDYTEYNQRFQDKATLTADKSSSTAYMQLSSLTSEDSAVYYCARWGGNSYGLDYWGQGTSVTVSS
VL: QIVLTQSPALMSASPGEKVTMTCSASSSVSYIYWYQQKPRSSPKPWIYLTSNLASGVPARFSGSGSGASYSLTISIMEAEDAATYYCQQWKSIPLTFGAGTKLELK
**Q.** Which results are given for B1?
**A.** Reactive Domain (ICAM-R): 1; PBMC proliferation (3H-thymidine) (PBMC): did not induce PMBC proliferation even in the presence of rIL2; SEA-induced cell aggregation, plate-bound antibody (human PBL): almost complete; SEA proliferation after 3 hours pre-incubation on immobilized antibody (PBL [1]): significantly reduced proliferation; greater increase in detergent resistance, crosslinked antibody (PBL [2]): approximately 2 fold
